Laboratory results taken from patent US20220363757A1.

Key:
Assay in all cases: SPR, Fab over captured mutant LAG-3-Fc
[1] = target: human LAG-3 domain 1-2 Fc fusion, chimeric construct #17 (mutated region AA 114-117) (human) (UniProt P18627)
[2] = target: human LAG-3 domain 1-2 Fc fusion, point mutation #6 T47A (human) (UniProt P18627)
[3] = target: human LAG-3 domain 1-2 Fc fusion, chimeric construct #4 (mutated region AA 40-47) (human) (UniProt P18627)
[4] = target: human LAG-3 domain 1-2 Fc fusion, point mutation #11 L56A (human) (UniProt P18627)
[5] = target: human LAG-3 domain 1-2 Fc fusion, point mutation #52 G108A (human) (UniProt P18627)
[6] = target: human LAG-3 domain 1-2 Fc fusion, chimeric construct #18 (mutated region AA 114-119) (human) (UniProt P18627)
[7] = target: human LAG-3 domain 1-2 Fc fusion, point mutation #17 Q66A (human) (UniProt P18627)
[8] = target: human LAG-3 domain 1-2 Fc fusion, point mutation #58 P115A (human) (UniProt P18627)
[9] = target: human LAG-3 domain 1-2 Fc fusion, point mutation #20 A73S (human) (UniProt P18627)
[10] = target: human LAG-3 domain 1-2 Fc fusion, chimeric construct #22 (mutated region AA 140-142) (human) (UniProt P18627)
[11] = target: human LAG-3 domain 1-2 Fc fusion, point mutation #71 D131A (human) (UniProt P18627)
[12] = target: human LAG-3 domain 1-2 Fc fusion, point mutation #21 A74S (human) (UniProt P18627)
[13] = target: human LAG-3 domain 1-2 Fc fusion, point mutation #44 R97A (human) (UniProt P18627)
[14] = target: human LAG-3 domain 1-2 Fc fusion, point mutation #12 R57A (human) (UniProt P18627)
[15] = target: human LAG-3 domain 1-2 Fc fusion, chimeric construct #6 (mutated region AA 48-55) (human) (UniProt P18627)
[16] = target: human LAG-3 domain 1-2 Fc fusion, point mutation #48 V101A (human) (UniProt P18627)
[17] = target: human LAG-3 domain 1-2 Fc fusion, point mutation #37 S90A (human) (UniProt P18627)
[18] = target: human LAG-3 domain 1-2 Fc fusion, point mutation #43 P96A (human) (UniProt P18627)
[19] = target: human LAG-3 domain 1-2 Fc fusion, point mutation #53 L109A (human) (UniProt P18627)
[20] = target: human LAG-3 domain 1-2 Fc fusion, point mutation #26 P79A (human) (UniProt P18627)
[21] = target: human LAG-3 domain 1-2 Fc fusion, point mutation #70 G130A (human) (UniProt P18627)
[22] = target: human LAG-3 domain 1-2 Fc fusion, point mutation #24 G77A (human) (UniProt P18627)
[23] = target: human LAG-3 domain 1-2 Fc fusion, point mutation #5 P46A (human) (UniProt P18627)
[24] = target: human LAG-3 domain 1-2 Fc fusion, chimeric construct #11 (mutated region AA 74-82) (human) (UniProt P18627)
[25] = target: human LAG-3 domain 1-2 Fc fusion, point mutation #27 L80A (human) (UniProt P18627)
[26] = target: human LAG-3 domain 1-2 Fc fusion, chimeric construct #5 (mutated region AA 46-51) (human) (UniProt P18627)
[27] = target: human LAG-3 domain 1-2 Fc fusion, point mutation #55 S111A (human) (UniProt P18627)
[28] = target: human LAG-3 domain 1-2 Fc fusion, point mutation #47 T100A (human) (UniProt P18627)
[29] = target: human LAG-3 domain 1-2 Fc fusion, chimeric construct #21 (mutated region AA 128-137) (human) (UniProt P18627)
[30] = target: human LAG-3 domain 1-2 Fc fusion, point mutation #62 Q121A (human) (UniProt P18627)
[31] = target: human LAG-3 domain 1-2 Fc fusion, point mutation #40 G93A (human) (UniProt P18627)
[32] = target: human LAG-3 domain 1-2 Fc fusion, chimeric construct #3 (mutated region AA 40-41) (human) (UniProt P18627)
[33] = target: human LAG-3 domain 1-2 Fc fusion, point mutation #80 R163A (human) (UniProt P18627)
Sequence of human LAG-3 domain 1-2 Fc fusion, point mutation #80 R163A (human) (P18627 23-266 R163A): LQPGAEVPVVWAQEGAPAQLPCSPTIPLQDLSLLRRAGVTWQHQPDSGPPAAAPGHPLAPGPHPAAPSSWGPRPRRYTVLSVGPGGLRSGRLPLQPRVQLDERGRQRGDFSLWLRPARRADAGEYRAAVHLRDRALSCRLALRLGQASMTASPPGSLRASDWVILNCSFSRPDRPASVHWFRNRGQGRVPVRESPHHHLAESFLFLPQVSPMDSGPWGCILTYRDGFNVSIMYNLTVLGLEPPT

Sequence of human LAG-3 domain 1-2 Fc fusion, chimeric construct #17 (mutated region AA 114-117) (human) (P18627 other isoform, or with tags, fused parts or gaps mutant): as the sequence (P18627 23-266 R163A) above, with L92Q, Q95L, A141R counted along it
Sequence of human LAG-3 domain 1-2 Fc fusion, chimeric construct #22 (mutated region AA 140-142) (human) (P18627 other isoform, or with tags, fused parts or gaps mutant): as the sequence (P18627 23-266 R163A) above, with R118T, A120K, A141R counted along it
Sequence of human LAG-3 domain 1-2 Fc fusion, chimeric construct #4 (mutated region AA 40-47) (human) (P18627 other isoform, or with tags, fused parts or gaps mutant): as the sequence (P18627 23-266 R163A) above, with A18V, Q19H, P24L, T25E, A141R counted along it
Sequence of human LAG-3 domain 1-2 Fc fusion, point mutation #21 A74S (human) (P18627 23-266 A74S): as the sequence (P18627 23-266 R163A) above, with A52S, A141R counted along it
Sequence of human LAG-3 domain 1-2 Fc fusion, point mutation #47 T100A (human) (P18627 23-266 T100A): as the sequence (P18627 23-266 R163A) above, with T78A, A141R counted along it
Sequence of human LAG-3 domain 1-2 Fc fusion, point mutation #24 G77A (human) (P18627 23-266 G77A): as the sequence (P18627 23-266 R163A) above, with G55A, A141R counted along it
Sequence of human LAG-3 domain 1-2 Fc fusion, point mutation #11 L56A (human) (P18627 23-266 L56A): as the sequence (P18627 23-266 R163A) above, with L34A, A141R counted along it
Sequence of human LAG-3 domain 1-2 Fc fusion, point mutation #70 G130A (human) (P18627 23-266 G130A): as the sequence (P18627 23-266 R163A) above, with G108A, A141R counted along it
Sequence of human LAG-3 domain 1-2 Fc fusion, point mutation #52 G108A (human) (P18627 23-266 G108A): as the sequence (P18627 23-266 R163A) above, with G86A, A141R counted along it
Sequence of human LAG-3 domain 1-2 Fc fusion, point mutation #55 S111A (human) (P18627 23-266 S111A): as the sequence (P18627 23-266 R163A) above, with S89A, A141R counted along it
Sequence of human LAG-3 domain 1-2 Fc fusion, point mutation #20 A73S (human) (P18627 23-266 A73S): as the sequence (P18627 23-266 R163A) above, with A51S, A141R counted along it
Sequence of human LAG-3 domain 1-2 Fc fusion, point mutation #58 P115A (human) (P18627 23-266 P115A): as the sequence (P18627 23-266 R163A) above, with P93A, A141R counted along it
Sequence of human LAG-3 domain 1-2 Fc fusion, point mutation #43 P96A (human) (P18627 23-266 P96A): as the sequence (P18627 23-266 R163A) above, with P74A, A141R counted along it
Sequence of human LAG-3 domain 1-2 Fc fusion, point mutation #37 S90A (human) (P18627 23-266 S90A): as the sequence (P18627 23-266 R163A) above, with S68A, A141R counted along it
Sequence of human LAG-3 domain 1-2 Fc fusion, point mutation #40 G93A (human) (P18627 23-266 G93A): as the sequence (P18627 23-266 R163A) above, with G71A, A141R counted along it
Sequence of human LAG-3 domain 1-2 Fc fusion, chimeric construct #11 (mutated region AA 74-82) (human) (P18627 other isoform, or with tags, fused parts or gaps mutant): as the sequence (P18627 23-266 R163A) above, with A52S, A53I, G55A, H56L, P57D, A59L, P60Q, A141R counted along it
Sequence of human LAG-3 domain 1-2 Fc fusion, point mutation #5 P46A (human) (P18627 23-266 P46A): as the sequence (P18627 23-266 R163A) above, with P24A, A141R counted along it
Sequence of human LAG-3 domain 1-2 Fc fusion, point mutation #12 R57A (human) (P18627 23-266 R57A): as the sequence (P18627 23-266 R163A) above, with R35A, A141R counted along it

- KD mutant/KD wild type [1]: 1.3 fold
- KD mutant/KD wild type [2]: 0.8 fold
- KD mutant/KD wild type [3]: 1.3 fold
- KD mutant/KD wild type [4]: 0.9 fold
- KD mutant/KD wild type [5]: 0.9 fold
- KD mutant/KD wild type [6]: 0.8 fold
- KD mutant/KD wild type [7]: 0.9 fold
- KD mutant/KD wild type [8]: 1 fold
- KD mutant/KD wild type [9]: 0.8 fold
- KD mutant/KD wild type [10]: 1.2 fold
- KD mutant/KD wild type [11]: 1.2 fold
- KD mutant/KD wild type [12]: 0.9 fold
- KD mutant/KD wild type [13]: 0.9 fold
- KD mutant/KD wild type [14]: 0.7 fold
- KD mutant/KD wild type [15]: 1.4 fold
- KD mutant/KD wild type [16]: 1 fold
- KD mutant/KD wild type [17]: 1 fold
- KD mutant/KD wild type [18]: 0.7 fold
- KD mutant/KD wild type [19]: 0.9 fold
- KD mutant/KD wild type [20]: 0.8 fold
- KD mutant/KD wild type [21]: 1.3 fold
- KD mutant/KD wild type [22]: 1 fold
- KD mutant/KD wild type [23]: 1.1 fold
- KD mutant/KD wild type [24]: 1.1 fold
- KD mutant/KD wild type [25]: 0.7 fold
- KD mutant/KD wild type [26]: 1.3 fold
- KD mutant/KD wild type [27]: 0.9 fold
- KD mutant/KD wild type [28]: 1.2 fold
- KD mutant/KD wild type [29]: 1.4 fold
- KD mutant/KD wild type [30]: 0.9 fold
- KD mutant/KD wild type [31]: 6.2 fold
- KD mutant/KD wild type [32]: 1.3 fold
- KD mutant/KD wild type [33]: 1 fold
Substance: Fab fragment of 25F7-Lag3.5 analogue
